For this assay, the target named is T1, Ad5 hexon, in the virion (human adenovirus 5, UniProt P04133 1-952).
T1 construct: source: in Ad5 (E1/E3 deleted) virions, bought: ViraQuest
The experiment in a line: co-IP. Particulars: both partners purified.

T1 sequence (P04133 whole entry): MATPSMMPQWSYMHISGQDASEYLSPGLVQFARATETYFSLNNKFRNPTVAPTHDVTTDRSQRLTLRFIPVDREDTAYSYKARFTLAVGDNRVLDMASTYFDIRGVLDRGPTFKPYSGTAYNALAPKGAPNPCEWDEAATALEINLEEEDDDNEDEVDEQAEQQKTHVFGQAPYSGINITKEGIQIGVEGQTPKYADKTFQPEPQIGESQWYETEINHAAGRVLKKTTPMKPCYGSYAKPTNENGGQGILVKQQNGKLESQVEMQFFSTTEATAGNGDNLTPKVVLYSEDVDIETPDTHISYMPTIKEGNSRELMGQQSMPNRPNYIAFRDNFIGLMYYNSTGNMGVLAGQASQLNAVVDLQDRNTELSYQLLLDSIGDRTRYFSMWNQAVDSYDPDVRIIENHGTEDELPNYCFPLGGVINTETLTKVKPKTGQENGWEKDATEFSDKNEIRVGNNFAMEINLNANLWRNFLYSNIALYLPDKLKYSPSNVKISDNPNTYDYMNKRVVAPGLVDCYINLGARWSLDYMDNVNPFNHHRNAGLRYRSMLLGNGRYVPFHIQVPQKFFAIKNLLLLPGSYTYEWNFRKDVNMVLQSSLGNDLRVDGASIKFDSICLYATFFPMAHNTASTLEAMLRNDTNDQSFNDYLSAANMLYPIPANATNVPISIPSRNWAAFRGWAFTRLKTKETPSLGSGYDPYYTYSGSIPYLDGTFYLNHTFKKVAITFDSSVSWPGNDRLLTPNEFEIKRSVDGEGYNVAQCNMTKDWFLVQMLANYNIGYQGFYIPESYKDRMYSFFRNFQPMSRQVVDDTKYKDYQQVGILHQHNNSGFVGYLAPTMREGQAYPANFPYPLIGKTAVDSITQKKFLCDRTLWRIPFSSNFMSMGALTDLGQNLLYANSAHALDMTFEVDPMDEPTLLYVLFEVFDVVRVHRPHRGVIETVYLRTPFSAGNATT

B1: Ad5 fiber protein (natural protein)
chain: MKRARPSEDTFNPVYPYDTETGPPTVPFLTPPFVSPNGFQESPPGVLSLRLSEPLVTSNGMLALKMGNGLSLDEAGNLTSQNVTTVSPPLKKTKSNINLEISAPLTVTSEALTVAAAAPLMVAGNTLTMQSQAPLTVHDSKLSIATQGPLTVSEGKLALQTSGPLTTTDSSTLTITASPPLTTATGSLGIDLKEPIYTQNGKLGLKYGAPLHVTDDLNTLTVATGPGVTINNTSLQTKVTGALGFDSQGNMQLNVAGGLRIDSQNRRLILDVSYPFDAQNQLNLRLGQGPLFINSAHNLDINYNKGLYLFTASNNSKKLEVNLSTAKGLMFDATAIAINAGDGLEFGSPNAPNTNPLKTKIGHGLEFDSNKAMVPKLGTGLSFDSTGAITVGNKNNDKLTLWTTPAPSPNCRLNAEKDAKLTLVLTKCGSQILATVSVLAVKGSLAPISGTVQSAHLIIRFDENGVLLNNSFLDPEYWNFRNGDLTEGTAYTNAVGFMPNLSAYPKSHGKTAKSNIVSQVYLNGDKTKPVTLTITLNGTQETGDTTPSAYSMSFSWDWSGHNYINEIFATSSYTFSYIAQE
notes: source: in Ad5 (E1/E3 deleted) virions, bought: ViraQuest
B1: the binding result is recorded as “binds”.

B2: Ad5 penton base (natural protein)
chain: MRRAAMYEEGPPPSYESVVSAAPVAAALGSPFDAPLDPPFVPPRYLRPTGGRNSIRYSELAPLFDTTRVYLVDNKSTDVASLNYQNDHSNFLTTVIQNNDYSPGEASTQTINLDDRSHWGGDLKTILHTNMPNVNEFMFTNKFKARVMVSRLPTKDNQVELKYEWVEFTLPEGNYSETMTIDLMNNAIVEHYLKVGRQNGVLESDIGVKFDTRNFRLGFDPVTGLVMPGVYTNEAFHPDIILLPGCGVDFTHSRLSNLLGIRKRQPFQEGFRITYDDLEGGNIPALLDVDAYQASLKDDTEQGGGGAGGSNSSGSGAEENSNAAAAAMQPVEDMNDHAIRGDTFATRAEEKRAEAEAAAEAAAPAAQPEVEKPQKKPVIKPLTEDSKKRSYNLISNDSTFTQYRSWYLAYNYGDPQTGIRSWTLLCTPDVTCGSEQVYWSLPDMMQDPVTFRSTRQISNFPVVGAELLPVHSKSFYNDQAVYSQLIRQFTSLTHVFNRFPENQILARPPAPTITTVSENVPALTDHGTLPLRNSIGGVQRVTITDARRRTCPYVYKALGIVSPRVLSSRTF
notes: as for B1
On to B2, for which the binding result is “binds”.
